The values below come from US20200397860A1, “SLIT AND BONE GROWTH MODULATION” (Cornell University, priority 2018, published 2020).

Series [1] has as its system CD31^hiEMCN^hi endothelium. The series is described as follows: Flow cytometry of skeletal CD31hiEMCNhi endothelium in femurs after IV injection. The class given is in vivo, mouse. Conditions: 8-week-old B6 mice, twice weekly IV 1 mg/kg, 21 days, femur; 1 mg/kg. Here is the method: Femur and tibia were dissected from mutant mice and control groups after removing surrounding connective tissues. The metaphysis region and diaphysis regions of bone was crushed in Hanks Balanced Salt Solution (Life Technologies) containing 10 mM HOPES (pH 7.2) (CellGro) and enzymatically digested with 2.5 mg/mL Collagenase A (Roche) and 1 unit/mL Dispase II (Roche) for 15 minutes at 37° C. under gentle agitation. The resulting cell suspensions were filtered (40 μm), washed using PBS (pH 7.2) containing 0.5% BSA (Fraction V) and 2 mM EDTA. After washing, equal numbers of cells per mouse were blocked with Purified Rat Anti-Mouse CD16/CD32 (BD Biosciences) for 30 min on ice, then stained with APC-conjugated EMCN antibody (ebioscience 50-5851-80), PE-conjugated CD31 (ebioscience 12-0311-81). FITC-conjugated CD45 (Tonbo 35-0451), APC/Cy7-conjugated Ter119 (Biolegend 116223) and PerCP-Cy5.5-conjugated CD146 (BD Biosciences 562231) for 45 min on ice. After washing, cells were resuspended in PBS (pH 7.2) with 2 mM EDTA and 1 μg/mL 4-6,Diamidino-2-Phenylindole (DAPI) (live/dead exclusion) for analysis on an LSRII flow cytometer system (BD Biosciences) cytometer and analyzed using FlowJo software (TreeStar). Cell sorting was performed with a FACS Aria II SORP cell sorter (Becton Dickinson) at Weill Cornell Medical College, with exclusion of DAPI^+ cells and doublets. […]
On the technique in general: In flow cytometry, cells or beads pass a laser one at a time.

The subject of series [2] is human mesenchymal stromal cells. The series is described as follows: ALP activity assay after 6 days of osteogenic culture. The series is classed as cell-based. Conditions: different doses. Here is the method:
Primary calvarial osteoblasts were isolated from five-day-old mice by triple collagenase/dispase II digestion. Cells were cultured in α-MEM medium (Gibco) containing 10% FBS, 2 mM L-glutamine, 1% penicillin/streptomycin, 1% Hepes, and 1% nonessential amino acids and differentiated with ascorbic acid and β-glycerophosphate. Conditioned medium was collected from culture of primary osteoblasts and stocked at −80° C. hMSCs were cultured and differentiated into osteoblasts using a commercial kit (Cyagen). All cells were routinely tested to be mycoplasma negative.
For staining of extracellular matrix mineralization, cells were fixed with 10% neutral buffered formalin and stained with alizarin red. Mineralization activity was measured by colorimetric analysis. For alkaline phosphatase (ALP) activity, osteoblasts were fixed with 10% neutral formalin buffer and stained with the solution containing Fast Blue and Naphthol (Sigma-Aldrich). Alternatively, osteoblasts were incubated with 10-fold diluted Alamar Blue solution, washed, and incubated with a solution containing 6.5 mM Na2CO3, 18.5 mM NaHCO3, 2 mM MgCl2, and phosphatase substrate (Sigma-Aldrich). ALP activity was measured by a spectrophotometer (Thermo).

Another series relates to fracture site. Nature of the series: Femoral fracture model, local delivery of SLIT3 into the fracture site. The series is classed as in vivo, mouse. As for the experimental part:
Micro-CT (μCT) analysis was conducted on a Scanco Medical μCT 35 system at the Citigroup Biomedical Imaging Core using the previously described parameters. (Shim et al. 2013). μCT analysis was performed by an investigator blinded to the genotypes of the animals under analysis.
For whole-mount immunostaining, retinas were collected from adult mice after systemic or local SLIT3 administration in bone fracture models.
Bone fracture was done following previously described protocols with modifications (Bradaschia-Correa et al. 2017). In brief, after anesthesia and surgical site sterilization, an incision above the right anterolateral femur was made. The femur and patella were then exposed, and a 27-gauge syringe needle was inserted parallel with the long axis of the femur through the patellar groove into the marrow cavity. The needle was then removed, and a single cut was made in the middle of the femoral diaphysis using a dremel saw with a diamond thin cutting wheel (VWR, Cat #100230-724). A blunt 25-gauge needle was then inserted into the marrow space through the hole made in the patella to stabilize the fracture. The needle was then trimmed to avoid it from projecting into the patella-femoral joint space. Muscle was then placed over the osteotomy site and stitched with absorbable sutures prior to closing the skin with wound clips.
Alternatively, the gelatin sponge was manually soaked with SLITS (300 ug/ml in PBS) or vehicle for 1 hour on ice and immediately placed to the surgical fracture area. All animals were euthanized by CO2 at time points indicated.
All bones were tested to failure using four-point bending on a precision electromagnetic-based load frame (EnduraTEC ELF 3200, Bose Corporation, Minnetonka, MC). Femurs were placed with the posterior surface on the lower supports, spaced 9.9 mm apart. The upper supports were spaced 3.3 ram. Load was applied at a rate of 0.1 mm/s until failure occurred. The failure load (N) and bending stiffness […] within the elastic range were calculated from the force-displacement curves and the four-point dimensions.

The test system of series [3] is bone marrow derived EPOCs. Nature of the series: Alamar blue based proliferation assay. The class given is cell-based, mouse. As for the experimental part:
Mouse bone marrow derived late-stage endothelial progenitor outgrowth cells (EPOCs) were obtained from BioChain (7030031) and cultured in growth medium (BioChain Z7030035) as described previously (Xie et al. 2014). Endothelial cell migration assay was set up in Trans well-24 well plates with 8-um pore filters. Briefly, 1×10^5 cells/well after 1-hour serum starvation were seeded in the upper chamber, then incubated with conditioned medium from osteoblasts and control in the lower chambers for a further 3 h. The cells in the upper surface of each filter were removed with cotton swabs. The cells that migrated into the lower surface were fixed with 4% PFA for 30 min and then stained with crystal violet. The cell numbers were quantified by counting a centered microscope field per each filter (5 wells for each condition). […] The width of the wound area was quantitatively evaluated using ImageJ (see website at rsb.info.uih.gov/ij/download.html). […] At 0, 24, 48 hours after seeding, cells were incubated with 10-fold diluted Alamar Blue solution (Thermo Fisher) and the supernatant was evaluated with a spectrophotometer (Thermo) (5 wells for each condition). […] Alter 5 hours incubation at 37° C., the number of tube branches each well was observed and quantified by counting four random fields per well with microscopy (5 wells for each condition).
On the technique in general: Resazurin is reduced to fluorescent resorufin, in cell work by metabolically active cells.

“Also recorded” adds a separate entry of the source.

B1: SLIT3: SLIT3 recombinant protein (R&D); secreted ligand of ROBO receptors (protein, UniProt O75094 34-1523, looked up)
Slit homolog 3 protein: CPTKCTCSAASVDCHGLGLRAVPRGIPRNAERLDLDRNNITRITKMDFAGLKNLRVLHLEDNQVSVIERGAFQDLKQLERLRLNKNKLQVLPELLFQSTPKLTRLDLSENQIQGIPRKAFRGITDVKNLQLDNNHISCIEDGAFRALRDLEILTLNNNNISRILVTSFNHMPKIRTLRLHSNHLYCDCHLAWLSDWLRQRRTVGQFTLCMAPVHLRGFNVADVQKKEYVCPAPHSEPPSCNANSISCPSPCTCSNNIVDCRGKGLMEIPANLPEGIVEIRLEQNSIKAIPAGAFTQYKKLKRIDISKNQISDIAPDAFQGLKSLTSLVLYGNKITEIVKGLFDGLVSLQLLLLNANKINCLRVNTFQDLQNLNLLSLYDNKLQTISKGLFAPLQSIQTLHLAQNPFVCDCHLKWLADYLQDNPIETSGARCSSPRRLANKRISQIKSKKFRCSGSEDYRSRFSSECFMDLVCPEKCRCEGTIVDCSNQKLVRIPSHLPEYVTDLRLNDNEVSVLEATGIFKKLPNLRKINLSNNKIKEVREGAFDGAASVQELMLTGNQLETVHGRVFRGLSGLKTLMLRSNLIGCVSNDTFAGLSSVRLLSLYDNRITTITPGAFTTLVSLSTINLLSNPFNCNCHLAWLGKWLRKRRIVSGNPRCQKPFFLKEIPIQDVAIQDFTCDGNEESSCQLSPRCPEQCTCMETVVRCSNKGLRALPRGMPKDVTELYLEGNHLTAVPRELSALRHLTLIDLSNNSISMLTNYTFSNMSHLSTLILSYNRLRCIPVHAFNGLRSLRVLTLHGNDISSVPEGSFNDLTSLSHLALGTNPLHCDCSLRWLSEWVKAGYKEPGIARCSSPEPMADRLLLTTPTHRFQCKGPVDINIVAKCNACLSSPCKNNGTCTQDPVELYRCACPYSYKGKDCTVPINTCIQNPCQHGGTCHLSDSHKDGFSCSCPLGFEGQRCEINPDDCEDNDCENNATCVDGINNYVCICPPNYTGELCDEVIDHCVPELNLCQHEAKCIPLDKGFSCECVPGYSGKLCETDNDDCVAHKCRHGAQCVDTINGYTCTCPQGFSGPFCEHPPPMVLLQTSPCDQYECQNGAQCIVVQQEPTCRCPPGFAGPRCEKLITVNFVGKDSYVELASAKVRPQANISLQVATDKDNGILLYKGDNDPLALELYQGHVRLVYDSLSSPPTTVYSVETVNDGQFHSVELVTLNQTLNLVVDKGTPKSLGKLQKQPAVGINSPLYLGGIPTSTGLSALRQGTDRPLGGFHGCIHEVRINNELQDFKALPPQSLGVSPGCKSCTVCKHGLCRSVEKDSVVCECRPGWTGPLCDQEARDPCLGHRCHHGKCVATGTSYMCKCAEGYGGDLCDNKNDSANACSAFKCHHGQCHISDQGEPYCLCQPGFSGEHCQQENPCLGQVVREVIRRQKGYASCATASKVPIMECRGGCGPQCCQPTRSKRRKYVFQCTDGSSFVEEVERHLECGCLACS
Regarding B1, in series [1], the “levels of skeletal CD31hiEMCNhi endothelium in vivo” value was “increased levels; also recorded: induces production”. In series [2], the “osteoblast activation / differentiation (ALP activity)” value is reported as “did not enhance osteoblast activation; also recorded: does not directly regulate osteoblast differentiation or activity”. In addition, the “fracture healing, local delivery” value in the series with fracture site (implanted at fracture site) was “enhances bone-fracture healing”. Also, the “non-skeletal vascular abundance or morphology” value in the series on fracture site (local delivery) is given as “did not impact”. Further, in the series with fracture site (mouse, in vivo), the brain ultrastructure entry was “did not impact”. Further, the proliferation entry in series [3] is “modestly increased the proliferation”.
